Reference: publication PMC5730154

Biological target: T1, PamR (YdcH) (Bacillus subtilis 168) (UniProt P96625)
T1 sequence: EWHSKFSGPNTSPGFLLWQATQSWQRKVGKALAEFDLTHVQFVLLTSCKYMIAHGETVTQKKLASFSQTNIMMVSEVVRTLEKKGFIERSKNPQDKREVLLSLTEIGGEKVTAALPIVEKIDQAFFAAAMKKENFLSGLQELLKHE
Test: EMSA
Conditions: 20 mM NaPO4 pH 7, 50 mM NaCl, 5 mM MgCl2, 10% glycerol, 0.1 ug/ul salmon sperm DNA, 10 min at room temperature; 4% native acrylamide gel

Sequence | binding
ACCTGACCTATATTCTCGGACAGCTGTCCTAAAAAACCAGAAAAAGAAGCTGGACATCCGGCTTCTTTTTTTTGCGGTTGACTATATTATTCTGCGCTTATTATAATTAATAAGTGAACTTATCATTCTGGGAGCTTATGGGATGTGGAATTATGAATACACAGCGATAGCTGATGTGGATGTGGGAAAACCTGGAACTGTTATCAGGAAACAGAAACAATGGATCAATGGGAGACGGGTATTGCATCAGATTCTTTGAAAGGACAATTTCAAAATGGAACGGAAGGAACATT (double strand) [PydcF IR1* mutant] | binds more weakly
AATGTTCCTTCCGTTCCATTTTGAAATTGTCCTTTCAAAGAATCTGATGCAATACCCGTCTCCCATTGATCCATTGTTTCTGTTTCCTGATAACAGTTCCAGGTTTTCCCACATCCACATCAGCTATCGCTGTGTATTCATAATTCCACATCCCATAAGCTCCCAGAATGATAAGTTCACTTATTAATTATAATAAGCGCACTTATTAATAGTCAACCGCAAAAAAAAGAAGCCGGATGTCCAGCTTCTTTTTCTGGTTTTTTAGGACAGCTGTCCGAGAATATAGGTCAGGT (double strand) [PydcF wt 293 bp] | binds
